Two molecules from patent publication US20240383970A1 (BEIJING IMMUNOCHINA PHARMACEUTICALS, published 2024) can be followed below.

Where a chain is given by its changes, count along the chain named.

This assay concerns the target T1, CAR targeting CD19 containing a Strep-Tag II tag, on CAR-T cells (UniProt P01732 138-206; Q07011 214-255; P20963 52-163).
T1 construct: domain: CD8α hinge region, CD8α transmembrane region;domain: intracellular region of 4-IBB;domain: intracellular region of CD3ζ; Expressed on human T cells after lentiviral transduction; also called CAR-T cells containing a Strep-Tag II tag; Strep-Tag II short peptide
The assay can be described thus: flow cytometry titration (10 concentrations) on CAR-T cells with Strep-Tag II tag; filing equates EC50 with KD (saturated concentration method). The source says:
The antibody affinity detection of the present invention adopts the dynamic equilibrium assay method (saturated concentration method). In the presence of a small amount of antigen, the antibody is subjected to gradient dilution to detect the concentration of the antigen-antibody complex. When the concentration of the antigen-antibody complex accounts for half of the total antigen concentration, the corresponding concentration value (EC50) of the antibody is the KD value of the antibody relative to the antigen.
CAR-T cells containing a Strep-Tag II tag were collected, washed with DPBS and counted. The cells were dispensed into several EP tubes at approximately 3×10⁵ cells per tube. After centrifugation to remove the supernatant, 8A882 antibody or 8F8D1 antibody and a positive control antibody (commercial Strep-Tag II antibody, Abcam; Cat #: ab184224) diluted in serial gradient for 10 concentrations were added and incubated at room temperature for 15 minutes. After washing the cells twice with DPBS, PE-labeled rat anti-mouse IgG was added, and incubated at room temperature for 15 minutes. After washing the cells twice, FACS analysis and GraphPad Prism software were used to calculate the EC50 value. […] Compared with the positive control antibody, the two strain antibodies of the present invention have high affinity.
(In flow cytometry, cells or beads pass a laser one at a time.)

T1 sequence (P20963 other isoform, or with tags, fused parts or gaps): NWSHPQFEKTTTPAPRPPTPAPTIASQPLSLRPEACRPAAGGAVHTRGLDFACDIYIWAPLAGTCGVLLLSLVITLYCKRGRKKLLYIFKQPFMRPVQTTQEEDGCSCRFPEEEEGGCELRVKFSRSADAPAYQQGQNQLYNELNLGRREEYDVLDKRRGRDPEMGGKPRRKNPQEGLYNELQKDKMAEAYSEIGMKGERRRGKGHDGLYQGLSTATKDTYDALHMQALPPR

B1: 8A882 antibody (antibody, mouse IgG1, kappa, V domains shown)
VH: EVQLQQSGPELVKPGASVKMSCKASGYTFTDYYMKWVKQSHGKSLEWIGDINPNNGDTFYNQKFKGKATLTVDKSSSSAYMQLNSLTSEDSAVYYCARYYGNSSPWFAYWGQGTLVTVSA
VL: DIVLTQSPASLAVSLGQRATISCKASQSVDYDGDSYMNWYQQKPGQPPKLLIYAASNLQSGIPARFSGSGSGTDFTLNIHPVEEEDTATYYCQQITEDPWTFGGRTKLEIKR
notes: Mouse monoclonal antibody from a hybridoma, purified from ascites on a Protein A/G column
By EC50 is commonly meant the concentration giving half of the maximal effect. Higher therefore signals a less potent agent. With B1, the response was half-maximal at 400 pM (EC50).

B2: 8F8D1 antibody (antibody, V domains shown)
VH: B1 VH with S44R, S78T, N102R, A108P
VL: B1 VL with A12G, Y31N, D32S, Q59E, T87A, T96N
notes: Mouse monoclonal antibody from a hybridoma, purified from ascites on a Protein A/G column; also called PE-labeled 8F8D1 antibody
In turn, B2 registered an EC50 of 200 pM.
